Where two headings read alike, the source gives them in different places. Positions of bridges follow the written chain, without caps; N, C: chain ends. No end group written: not given here.
How the values were obtained:
HEL cells [1] = experiment: Thrombopoietin-like activity, tyrosine phosphorylation levels in HEL cells (dot blot); format: cell-based, human; settings: for increase in tyrosine phosphorylation levels compared with rhTPO: culture supernatant diluted, 20 minutes, rhTPO 10 to 100 ng/mL, FIG. 41
Experimental: The thrombopoietin-like activity of the TPO-PAS dimer peptide was evaluated by quantification of tyrosine phosphorylation levels in HEL cells, a human leukemia-derived blood cell line. 200,000 HEL cells were cultured in RPMI 1640 medium without FBS (Thermo Fisher Scientific) for 24 hours and starved. The cells were stimulated for 20 minutes in RPMI 1640 medium supplemented with 10 to 100 ng/mL recombinant human TPO (rhTPO, Peprotech) or a culture supernatant containing AET-TPO1-PAS8, TPO2-PAS8, or AET-TPO2-PAS8 at a predetermined dilution factor. As a negative control, PBS (Mock group) or a supernatant expressing no peptide (Empty group) by using an empty vector was added, and stimulation was performed for 20 minutes. After removing the medium and washing the cells once with PBS, the cells were lysed by adding 100 μL of Lysis buffer 17 (R&D Systems) supplemented with Protease inhibitor cocktail (Nacalai Tesque). The lysate solution was centrifuged at 14,000 G for 5 minutes to obtain the supernatant as lysate.
APVDF membrane (Immobilon-P membrane 0.45 m, Merck) was treated with methanol for 1 minute and then with ultrapure water for 5 minutes for hydrophilic treatment. The PVDF membrane was dried, and each cell lysate solution was spotted with a 1 μL pipette and dried. The PVDF membrane was blocked with PVDF Blocking Reagent for Can Get Signal (NOF) at room temperature for 1 hour, and then Can Get Signal Solution 2 (NOF), supplemented with anti-pY antibody-[…] conjugate (Cell Signaling Technology) at 1:5000, was added, followed by an antibody reaction at 4° C. for 24 hours. The membrane was washed 3 times with TBST buffer, Luminata Crescendo Western HRP Substrate (Merck) was added, and a chemiluminescence reaction was carried out. Chemiluminescence was detected using Amersham Imager 600 (GE Healthcare). The luminescence intensity of the detected dots was quantified by ImageJ.

HEL cells [2] = experiment: Signal characteristics, Proteome Profiler Human Phospho-Kinase Array Kit, HEL cells; format: cell-based; settings: 100 ng/mL rhTPO or culture supernatant 1/100 to 1/1000, 20 minutes, FIG. 43
Experimental: The signal characteristics of the TPO-PAS dimer peptide were evaluated using Proteome Profiler Human Phospho-Kinase Array Kit (R&D Systems).
1,000,000 HEL cells were cultured in RPMI 1640 medium without FBS (Thermo Fisher Scientific) for 24 hours and starved. The cells were stimulated for 20 minutes in RPMI 1640 medium supplemented with 100 ng/mL recombinant human TPO (rhTPO, Peprotech) or a culture supernatant containing TPO2-PAS8 at a dilution of 1/100 to 1/1000. As a negative control, PBS was added, and stimulation was performed for 20 minutes (Mock group). After removing the medium and washing the cells once with PBS, the cells were lysed by adding 200 μL of Lysis buffer 17 (R&D Systems) supplemented with Protease inhibitor cocktail (Nacalai Tesque). The lysate solution was centrifuged at 14,000 G for 5 minutes to obtain the supernatant as lysate.
The lysate was analyzed using Proteome Profiler Human Phospho-Kinase Array Kit. Amersham Imager 600 (GE Healthcare) was used to detect chemiluminescence. The chemiluminescence intensity of the dots was quantified using ImageJ. […] The signal pathway stimulated by rhTPO is mainly the JAK2/Stat3,5 pathway, and all of the proteins with increased phosphorylation levels are included in the pathway.

FGFR = molecular target: T1, FGFR (Homo sapiens, UniProt P11362); experiment: FGFR inhibitory activity, SRE luciferase assay in HEK293E cells stimulated with bFGF; format: cell-based; settings: peptide at 10 μM, 0 to 10 ng/mL bFGF, FIG. 3
T1 construct: endogenous in cells; host or cells: HEK293E
Experimental: The inhibitory activity of the FBP monomer peptide chemically synthesized with the FBP-PAS dimer peptide on FGFR was evaluated by luciferase assay. To 25 μL of Opti-MEM medium (Thermo Fisher Scientific), 0.6 μL of Attractene Transfection Reagent (QIAGEN) was added, and the mixture was incubated at room temperature for 5 minutes. To the above mixed solution, a mixed solution of 25 μL of Opti-MEM and 1 μL of SRE reporter vector (QIAGEN) was added, and the mixture was incubated at room temperature for 20 minutes. This mixed solution was added to a 96-well plate, over which 40,000 cell/well HEK293E cells were seeded and incubated overnight in a 5% CO2 incubator at 37° C. […]
The signal intensities were detected using Dual-Luciferase Reporter Assay System (Promega). […] The luminescence of Firefly luciferase emitted from the cell lysate solution was detected with a plate reader to quantify the activation of the FGFR-Erk-SRE pathway. Subsequently, 50 μL of Glo & Stop reagent solution was added, and after 10 minutes, the luminescence of the internal standard Renilla luciferase was detected to quantify the number of cells. The signal activity of each sample was quantified as SRE activity=(Firefly luciferase luminescence intensity)/(Renilla luciferase luminescence intensity). […]

Met (HGF receptor) = Met (HGF receptor) (UniProt P08581); experiment: cell-based or functional assay
EpoR [3] = molecular target: T2, EpoR (UniProt P19235 25-508, limits assumed); experiment: cell-based or functional assay
T2 sequence (looked up): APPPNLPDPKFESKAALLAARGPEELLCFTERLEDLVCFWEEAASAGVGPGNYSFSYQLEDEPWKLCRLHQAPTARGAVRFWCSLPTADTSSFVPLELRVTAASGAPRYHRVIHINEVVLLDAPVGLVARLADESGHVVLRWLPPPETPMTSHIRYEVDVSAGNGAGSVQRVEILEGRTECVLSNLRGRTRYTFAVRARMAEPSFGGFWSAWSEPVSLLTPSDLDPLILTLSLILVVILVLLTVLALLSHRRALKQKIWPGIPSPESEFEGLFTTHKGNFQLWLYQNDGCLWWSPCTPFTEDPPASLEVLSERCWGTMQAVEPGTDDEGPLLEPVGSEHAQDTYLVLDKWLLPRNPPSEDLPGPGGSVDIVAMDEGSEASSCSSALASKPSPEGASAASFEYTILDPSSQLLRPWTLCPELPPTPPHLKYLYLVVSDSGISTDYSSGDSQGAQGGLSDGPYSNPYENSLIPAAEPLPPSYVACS

EpoR [4] = molecular target: T2, EpoR; experiment: cell-based or functional assay; remark: listed apart in the source

T1 sequence (P11362 22-822): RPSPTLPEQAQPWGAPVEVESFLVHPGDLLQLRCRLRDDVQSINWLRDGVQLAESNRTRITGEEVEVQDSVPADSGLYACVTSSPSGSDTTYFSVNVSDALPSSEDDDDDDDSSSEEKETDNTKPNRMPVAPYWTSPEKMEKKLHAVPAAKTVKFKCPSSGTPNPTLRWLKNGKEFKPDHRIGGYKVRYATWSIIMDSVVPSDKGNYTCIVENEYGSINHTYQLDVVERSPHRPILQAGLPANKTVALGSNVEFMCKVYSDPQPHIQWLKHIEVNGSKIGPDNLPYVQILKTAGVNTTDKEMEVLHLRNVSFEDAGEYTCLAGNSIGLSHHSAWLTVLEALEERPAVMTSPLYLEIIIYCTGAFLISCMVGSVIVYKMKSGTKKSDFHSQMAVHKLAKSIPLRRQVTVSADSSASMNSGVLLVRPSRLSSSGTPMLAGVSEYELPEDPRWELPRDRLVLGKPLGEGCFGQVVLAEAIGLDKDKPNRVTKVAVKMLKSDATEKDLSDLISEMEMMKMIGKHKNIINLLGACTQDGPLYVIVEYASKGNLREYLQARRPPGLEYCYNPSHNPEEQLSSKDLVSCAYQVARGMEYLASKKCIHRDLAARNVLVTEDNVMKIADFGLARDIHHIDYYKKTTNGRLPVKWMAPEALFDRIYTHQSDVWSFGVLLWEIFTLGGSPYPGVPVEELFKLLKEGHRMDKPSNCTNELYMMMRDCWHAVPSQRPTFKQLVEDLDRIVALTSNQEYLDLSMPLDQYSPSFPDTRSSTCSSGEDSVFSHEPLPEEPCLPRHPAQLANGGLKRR
Met (HGF receptor), sequence (P08581 25-1390 limits assumed): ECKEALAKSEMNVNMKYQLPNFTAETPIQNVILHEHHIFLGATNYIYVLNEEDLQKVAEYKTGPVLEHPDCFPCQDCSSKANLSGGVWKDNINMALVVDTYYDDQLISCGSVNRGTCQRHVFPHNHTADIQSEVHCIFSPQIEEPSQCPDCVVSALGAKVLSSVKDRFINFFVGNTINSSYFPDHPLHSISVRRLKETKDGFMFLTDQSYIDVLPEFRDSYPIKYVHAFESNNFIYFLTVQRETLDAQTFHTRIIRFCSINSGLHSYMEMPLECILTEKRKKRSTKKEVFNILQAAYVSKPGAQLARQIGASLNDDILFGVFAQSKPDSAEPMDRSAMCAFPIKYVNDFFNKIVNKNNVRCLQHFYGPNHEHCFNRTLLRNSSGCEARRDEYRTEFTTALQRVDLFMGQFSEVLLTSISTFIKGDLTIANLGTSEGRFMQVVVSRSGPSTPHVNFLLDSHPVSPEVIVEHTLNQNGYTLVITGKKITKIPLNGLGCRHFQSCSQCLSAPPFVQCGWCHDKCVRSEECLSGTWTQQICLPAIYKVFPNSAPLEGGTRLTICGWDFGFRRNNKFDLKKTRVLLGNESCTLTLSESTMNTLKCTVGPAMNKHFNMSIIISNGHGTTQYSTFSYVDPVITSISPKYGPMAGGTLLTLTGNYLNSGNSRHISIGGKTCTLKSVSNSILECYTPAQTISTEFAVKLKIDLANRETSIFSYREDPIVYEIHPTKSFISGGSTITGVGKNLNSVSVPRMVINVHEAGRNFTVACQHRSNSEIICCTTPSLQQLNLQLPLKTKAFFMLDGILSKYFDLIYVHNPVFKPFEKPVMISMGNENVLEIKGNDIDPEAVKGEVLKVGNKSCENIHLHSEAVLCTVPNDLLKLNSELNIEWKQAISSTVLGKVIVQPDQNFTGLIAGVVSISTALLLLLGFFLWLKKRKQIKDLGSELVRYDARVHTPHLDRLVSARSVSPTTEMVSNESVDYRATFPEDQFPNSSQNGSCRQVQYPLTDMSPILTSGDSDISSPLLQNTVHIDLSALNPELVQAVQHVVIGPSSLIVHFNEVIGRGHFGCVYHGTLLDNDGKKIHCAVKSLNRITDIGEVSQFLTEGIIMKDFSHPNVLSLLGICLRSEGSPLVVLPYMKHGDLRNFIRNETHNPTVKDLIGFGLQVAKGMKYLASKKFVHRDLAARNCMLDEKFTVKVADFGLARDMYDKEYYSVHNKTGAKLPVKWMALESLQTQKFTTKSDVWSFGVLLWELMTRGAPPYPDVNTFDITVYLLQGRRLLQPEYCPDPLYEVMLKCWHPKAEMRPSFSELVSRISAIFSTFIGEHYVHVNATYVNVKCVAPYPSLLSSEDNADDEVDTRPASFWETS

Row | Molecule | increase in tyrosine phosphorylation levels compared with rhTPO (HEL cells [1]) | EC50 (EpoR [4]) | also measured
1 | AETGGCADGPTLREWISFCGGAAPAAPAPGGCADGPTLREWISFCGG (disulfide 6-19, 32-45) [AET-TPO2-PAS8] | equal to or higher than that of rhTPO |  | 
2 | AETIEGPTLRQWLAARAAAPAAPAPIEGPTLRQWLAARA (AET-TPO1-PAS8) | equal to or higher than that of rhTPO |  | 
3 | GGCADGPTLREWISFCGGAAPAAPAPGGCADGPTLREWISFCGG (disulfide 3-16, 29-42) [TPO2-PAS8] | equal to or higher than that of rhTPO |  | phosphorylation levels of signal proteins compared with PBS (Mock group) (HEL cells [2]): increased in phosphorylation levels of Erk, CREB, Stat3, Stat5a, and Stat5b; luminescence intensity (HEL cell activation ability) compared with rhTPO (HEL cells [1]; culture supernatant 1/100 to 1/10000 dilution, FIG. 42): equal to or higher than that of the 100 ng/mL rhTPO stimulation group
4 | RPGCGPRKPRTPKKCGSHGAAPAAPAPAAPAAPAPAAPAGRPGCGPRKPRTPKKCGSH (disulfide 4-15, 44-55) [FBP-PAS] |  |  | inhibitory activity on FGFR (relative receptor activity) (FGFR): higher inhibitory activity than the FBP monomer peptide
5 | recombinant human HGF (from UniProt P14210 32-728) (ligand) |  |  | rate of wound healing of HuCCT1 cells (33 ng/mL HGF) (Met (HGF receptor)): 1.6 times
6 | AET-EPO-PAS22-PAS200 (two disulfide bonds in the molecule) peptide: AETGGLYACHMGPMTWVCQPLRGAAPAAPAPAAPAAPAPAAPAAPGGLYACHMGPMTWVCQPLRGAAPAAPAPAAPAAPAPAAPAAPAPAAPAAPAPAAPAAPAPAAPAAPAPAAPAAPAPAAPAAPAPAAPAAPAPAAPAAPAPAAPAAPAPAAPAAPAPAAPAAPAPAAPAAPAPAAPAAPAPAAPAAPAPAAPAAPAPAAPAAPAPAAPAAPAPAAPAAPAPAAPAAPAPAAPAAPAPAAPAAPAPAAPAAPAPAAPAAPAP |  |  | EC50 (EpoR [3]): 0.85 ng/mL
7 | AET-EPO-PAS22 (disulfide 9-18, 51-60) peptide: AETGGLYACHMGPMTWVCQPLRGAAPAAPAPAAPAAPAPAAPAAPGGLYACHMGPMTWVCQPLRG |  | 0.34 ng/mL | 
8 | AET-EPO-PAS8 (disulfide 9-18, 37-46) peptide: AETGGLYACHMGPMTWVCQPLRGAAPAAPAPGGLYACHMGPMTWVCQPLRG |  | 0.19 ng/mL | 
9 | AET-EPO-PAS22-PAS600 (two disulfide bonds in the molecule) peptide: AETGGLYACHMGPMTWVCQPLRGAAPAAPAPAAPAAPAPAAPAAPGGLYACHMGPMTWVCQPLRGAAPAAPAPAAPAAPAPAAPAAPAPAAPAAPAPAAPAAPAPAAPAAPAPAAPAAPAPAAPAAPAPAAPAAPAPAAPAAPAPAAPAAPAPAAPAAPAPAAPAAPAPAAPAAPAPAAPAAPAPAAPAAPAPAAPAAPAPAAPAAPAPAAPAAPAPAAPAAPAPAAPAAPAPAAPAAPAPAAPAAPAPAAPAAPAPAAPAAPAPAAPAAPAPAAPAAPAPAAPAAPAPAAPAAPAPAAPAAPAPAAPAAPAPAAPAAPAPAAPAAPAPAAPAAPAPAAPAAPAPAAPAAPAPAAPAAPAPAAPAAPAPAAPAAPAPAAPAAPAPAAPAAPAPAAPAAPAPAAPAAPAPAAPAAPAPAAPAAPAPAAPAAPAPAAPAAPAPAAPAAPAPAAPAAPAPAAPAAPAPAAPAAPAPAAPAAPAPAAPAAPAPAAPAAPAPAAPAAPAPAAPAAPAPAAPAAPAPAAPAAPAPAAPAAPAPAAPAAPAPAAPAAPAPAAPAAPAPAAPAAPAPAAPAAPAPAAPAAPAPAAPAAPAPAAPAAPAPAAPAAPAPAAPAAPAPAAPAAPAPAAPAAPAPAAPAAPAPAAPAAPAPAAPAAPAPAAPAAPAP |  |  | EC50 (EpoR [3]): 0.32 ng/mL
10 | GGLYACHMGPMTWVCQPLRG [monomer peptide EMP35] |  | 110 ng/mL | 

Source: patent US20220396819A1, “METHOD FOR PRODUCING PEPTIDE HAVING PHYSIOLOGICAL ACTIVITY, AND PEPTIDE COMPRISING SHORT LINKER” (priority 2019, published 2022)
